Laboratory results from a protein production outcome set (Wang et al. 2014).

Experiment: label from the status in PepcDB records

**Q.** Which protein production does the source give for “MKRKISMNKYVVSTILVMISTFFSRIMGFVKIKIFSYYFGANLDADIFNYVFNIPNNLRKILSEGAMTSAFLPEFTHEKNKSHEKAVSFFRTVITFNIISIGLIVLVMIIFAKPIMYFISYYRGENLIFASSVFGYLVLYILLISLSSIFVSVLNSYKIFFIPSFSPIMLSFGIILSIFLFYGRFGIYSAVIGVIFGGFLQFLIPFANCLMIGFAWKPTFYFREKVFLNFLTRWLRMIFGFSISIITQQISFALASTLEIGSVSILSNAVVYYQLPVGIFYISIATVIFPKMAEHAVLGNNIKLNALLVDGIKILLLIFIPVSFLMFIWSDYILNLFLMGGKFSIYDTQKTASVLKCFLLGLLFYSMFGFFQKYYFSIRDAKTPFYLSVLFSILDIAISVFGINYYGLNALALAQSISFMICVIVFYFIILKRGVKIDLIEILFVLLKSIITLFPLYAIYFFFEKFQWDVGFSFKNLYFLMAAGIVSIFVLFICYSVLGINKLFRYIRRDAL” here?
**A.** The protein production was “failed”.

**Q.** For “MKRKLTTKFIESQKPNPSKRLDFRDELMPGLVLRISTSGTKTFCLHKRISGKMRRLTIGRFGVVSLAEARERVRKVLYEIETGRFEDRTGVEVETKPTLGDVIPDYIEKHAKVHNRDWKRKEALLAKFAALHVKRIDEIKRADVVKACDLIHKSAPVSANRALAHLKHLMGWCVERGMIDASPIAGMKPLSKERSRERVLTDDELGALWTACDAEGYPFGDCMKLLILSGQRRAEVAEMRWTELDLEKRLWTLPSQRAKNGRQHTVPITDAMIDVLRRVPRFLGSDYVFTTTGKSPVSGFGRLKDRLDKALPEGTEPWIIHDLRRTMSTNMAMLGVPQPVTEALLNHKTGVVSGVAAIYNVYSYTDEKCEALEQWNRHLTKMTQGHSDRLAGKMSAQFSA”, which protein production is on record?
**A.** The protein production was “failed”.

**Q.** For “MKRKMLKRLLTSAFACMFIANGLITTTVRAVGPKTGEENQVLVPNLNPTPENLEVVGDGFKITSSINLVGEEEADENAVNALREFLTANNIEINSENDPNSTTLIIGEVDDDIPELDEALNGTTAENLKEEGYALVSNDGKIAIEGKDGDGTFYGVQTFKQLVKESNIPEVNITDYPTVSARGIVEGFYGTPWTHKDRLDQIKFYGENKLNTYIYAPKDDPYHREKWREPYPENEMQRMQELIDASAENKVDFVFGISPGIDIRFDGEAGEEDFNHLIAKAESLYDMGVRSFAIYWDDIQDKSAAKHAQVLNRFNEEFVKAKGDVKPLITVPTEYDTGAMVSNGQPRTYTRIFAETVDPSIEVMWTGPGVVTNEIPLSDAQLISGIYNRNMAVWWNYPVTDYFKGKLALGPMHGLDKGLNQYVDFFTVNPMEHAELSKISIHTAADYSWNMDNYDYDKAWNRAIDMLYGDLAEDMKVFANHSTRMDNKTWAKSGREDAPELRAKMDELWNKLSSKEDASALIEELYGEFARMEEACNNLKANLPEVALEECSRQLDELITLAQGDKASLDMIVAQLNEDTEAYESAKEIAQNKLNTALSSFAVISEKVAQSFIQEALSFDLTLINPRTVKITASSEETSGENAPASFASDGDMNTFWHSKWSSPAHEGPHHLTLELDNVYEINKVKYAPRQDSKNGRITGYKVSVSLDGENFTEVKTGTLEDNAAIKFIEFDSVDAKYVRLDVTDSVSDQANGRGKFATAAEVNVHGKLKEAAEVTGSVSLEALEEVQVGENIEVGVGIDELVNAEAFAYDFTLNYDENAFEYVEAISDDGVFVNAKKIEDGKVRVLVSSLTGEPLPAKEVLAKVVLRAEAKTEGSNLSVTNSSVGDGEGLVHEIAGTEKTVNIIEGTSPEIVVNPVRDFKASEINKKNVTVTWTEPETTEGLEGYILYKDGKKVAEIGKDETSYTFKKLNRHTIYNFKIAAKYSNGEVSSKESLTLRTAR”, which protein production is on record?
**A.** Its protein production is “failed”.

**Q.** For “MKRLIAATLVAAMGVSLLTGCGVSNKSHDNTQVGTTENSSDKAKNKEVKMHVWCSKDDVDITTQMIESFKEANKGTDFNIIIEESEDSDARDNILSNVHNGADVFPIADDQITSMVAGGALYEIEDVDAVKKANDESAVEAATIDGKLYGYPLTADNGYFMYYNKNYFSDSDVATLDGMLDIAGANGKYLTMDWSSGWYLYSFFGNTGLDFGVNDDGVTNHCNWNAIITDIKGVDIAQAMLDIAAKPGFKNCVQDDFIAGVQDGSIIAGVSGCWNAAKIKELWGDDYGAVKLPTYTCAGQQIQMSSFKGYKYMAVNAYTKYPEWANKLAQWFTNEDNQKLRFEMKNVGPANKAAAADDAVKKVPAIMAVMDQAQYGKLQRVGNSYWDAATEFGEKMAAGNPDNTDLQEIMDNLVAGITQSVAE”, which protein production is on record?
**A.** Its protein production is “failed”.

**Q.** With “MKRLIVVYLLFISLNVLNAWAQKSPADYVNPIIGATTADEMAGSDHGLGKTFPGVCTPFGLVQLSPDTKTGGDNGPGYSWHHSTIEGFSFTHMSGIGWYGDLGNFLVMPTTGELHTFKGTEENPESGYRSRYSHDREVAKVDGYSVMLDDYGIQVELAAASRSGMMRFTYPQSEVSRIQIDLARRIGGTSTEQYVEVVDDYTIKGWMKCTPDGGGWGDGAGQGNYTAYFYCCFDRPLKNFGLWSADIPEGVERKNASNDDPAYHEYIKNAHVFPRKKIAQGKHLGFYTEFSTREGEQALLKCGISFVSIEGARKNLQSDISDWNFDGVRQRARRQWNEALSGVQVEGEEKDKTIFYTSLYHTMIDPRCFSDVDGAYPGADGKVHYADNFIYRTIFSGWDVFRSQFPLQTITNPRLVDDEINSLIQLAELSGKKYFPRWEFLNAYSGCMVGNPAVSVVADAYNKGIRNYDTRKALEYSLNTVRTFGNNEQGYTPDDLSKTLEYAYTDWCVSTMLRDMGREQEAVAFERKAQSYHQVWCDSVKWFRARSADGSWMPWKGRNVHWQGCIESNNYQQGWFVPHDLEGLISLMGKEYFERELVAFFEGADERFMWGDYYNHPNEPDHQVPFMLNYTSRPWLTQYWTRRICRNAYGDTVNGLCGNEDVGQMSAWYILAAMGFHPICPGNNRYELTSPVFRKVILSLDNRYYKGRTFTIIAHHNSPENVYIQSVSLNGKPLNRLWITHEEITKGGVLEFVLGKDPKH” as the sequence, how does the protein production read?
**A.** The protein production was “failed”.

**Q.** Which protein production does the source give for “MKRLLLCLIVIAQTILSLTAQTTEELSRMQTLIDHMAYTEALAWADSCSLQDEQALHLRAKALSELGRHPEAFAVYQRIVRMDPHDAVAYRLGAALQVDMQDYATAAEMLHQGYERTSDIPTGYDLAKLLVHIGQDSTALVITDRILRQDSLPPVIRLRAKALNKRQQPSQAIALLEEQMLRDSTDFLTLIDLATLYGQVEETRRQEQVTARYLQTDSLNVAVLLAHAESMMMLQEADSALHDYERIIGRGHFPTSFKDLFYCGLAYYKTGRWAVAEECFRRADESAFQQNYLTKYYLGMCAYRQKLWEEAEKRLQKLLDLIEPKTDRLTDVHTMLGRCANEQGRTETAISHLRYAIEYDSGNSEACLLLAQCFEKTGNRTGAIHMYRRVLDKERASTAKNDIEGFRRLAEARSRLSLLKADDSEDEETP” here?
**A.** The protein production was “failed”.

**Q.** For “MKRLMTSLAALSLTAGLAHAQAADVPDNLEKLSNFQSTGATDFTFVEQGGDFADGIKRNLERIKLPQGFRIGLYAVVPDARHMAVGPQGIVTFVGTRKDKVWAVTDRNKDRVADEVKDFAPSLRFTIPNGPCFSKDGFLYIAEQNRVLLFPAAEFFYESGDVAAFNLVKQGELIPVEEESFNHTARVCDIGPDGMIYITLGQPFNVPAPEKRELYDKWGIGGIVRMKTDGTGREVFARGIRNSVGMDIDPETGNVWFTDNQVDGMGDDIPPGEINRATEPGQNFGFPWYGGGSIRTNEYKDEEPPADAVMPVVEMDAHAADLGMMFYTGSMFPEEYRGAIFSAQHGSWNRTTPVGARVMVTTLAEDGTATTKPFAEGWIDENGEYLGRPVDVAQLRDGSILVSDDLVGAIYRIWYQPE”, which protein production is on record?
**A.** The protein production was “failed”.

**Q.** For “MKRNIFSIGFISVVLFIVLGACVGLAASEALQGSEQEINSAFSNQITPVISGDYIVWQDERDGNWDIYMYDMSAGRTETSLFNGPKDEIEPAISGSRVVLADNRRGNYDIYMYDISTKKEVQVTSDKSEQKEPAISEDIIVWTDRRNQNTDIYMYDLTTKEETRITDDKADQSQPAVWGNIIVWKDTRNGNEDIYMYDISAGKESPVVMDSAAQTNPVIEGDYIVWEDRRAGNLDIYMYEISTGKEKPVCTDPSPQKTPAISDGRIVWADGRIKGTNIFIYDIATGQEKTVSTASEYESNPSIDGNRIVWQDKRKGAMDIFMFTEDASETESTAGEKTEAETGSKAPLGIYPVSAGVIAAYLMINSGKKGKRKT”, which protein production is on record?
**A.** Its protein production is “failed”.

**Q.** With “MKRPELIIFDWDGTLFDSVGQIVASLRFAADQFNQPLTDEAAQSIIGLGLPEVMQALFPQVPHLHQEILVHYGEHYVENSKHDAWFEGVAELLHDLKAQGIKLAVATGKSRRGLDRVLNKTQSHELFDITRAASETMSKPHPRMLEEILQVTQVEAQHAIMVGDSSYDLEMAKNIDMPRVGVSYGVHEVDVLQRYEPLTIVDSIAELHHYLTQLLQEKIHA” as the sequence, how does the protein production read?
**A.** Its protein production is “failed”.

**Q.** For “MKRRAGLGGSMRSVVGFLSQRGLHGDPLLTQDFQRRRLRGCRNLYKKDLLGHFGCVNAIEFSNNGGQWLVSGGDDRRVLLWHMEQAIHSRVKPIQLKGEHHSNIFCLAFNSGNTKVFSGGNDEQVILHDVESSETLDVFAHEDAVYGLSVSPVNDNIFASSSDDGRVLIWDIRESPHGEPFCLANYPSAFHSVMFNPVEPRLLATANSKEGVGLWDIRKPQSSLLRYGGNLSLQSAMSVRFNSNGTQLLALRRRLPPVLYDIHSRLPVFQFDNQGYFNSCTMKSCCFAGDRDQHHNWKWRAQAVSFQPFLSLTRNGDADVDLKLAV”, which protein production is on record?
**A.** Its protein production is “failed”.

**Q.** Which protein production does the source give for “MKRREVLQAGMALGGLAGLGRALAQGGFTLTLVHTNDTHAHLEPVELTLSGEKTPVGGVARRVALFDRVWARAKNPLFLDAGDVFQGTLYFNQYRGLADRYFMHRLRYRAMALGNHEFDLGPGPLADFLKGARFKVVSANVDASREPRLKGLFAPYAVVVVGGERVGIIGLTTPDTREISNPGPTVAFLDPYESAQKAVYELLAKGVNKIVVLSHLGYGEDLKLARRLVGVQVIVGGHSHTLLGSFPHKELSPAGPYPTVVKNPEGKDVLVVQAWEWGKVVGLLEVTFDAKGELLAYKGEALLMTPEAAPEDFFAKEALLAYAQPVMALMQQVIAEAKVDLVGERAVVRRRESNLGNLITDGMLWKTRNAGTQIALQNGGGIRASIPKGPITVGKVYEVLPFGNTLVVMDLKGKEILAALENGVSQWENTAGRFLQVSGLRYAFDLSRPAGSRVVRVEVKTEKGYVPLDLEATYRVVVNNFIANGGDGFTVLKEAQGYRVDTGFSDAESFMDYLKELKVVEAGLEGRIEVLNEPKGERPAYFAYRVPGLVGV” here?
**A.** The protein production was “not failed”.

**Q.** With “MKRRYSILIILLVAIFYRMITFRFKYLLGYDPYFHLAYIEEVNKVGKWINFLTFAGGPWGYQVKLFHPLGLWMTPLYLYKLLKVFGVSLTTTFKITPVIFGVLTVIFLYLSLLKLYDEKRAFFGGFFLAISYGHVFRSMANYYRGDNYMLFWYSVALLGISLALGIKKGKWKYKRLIFYTLPVLASGFSAIFWQAYYPIFAFLLSNALLLAVGAFILKKDKYLLDSIILILSTAFGVLLANYLGGIFGYGMLGYAKWLGKSVAKKLGLEFGYLKDVYLILHLKYLVPISLSFVLVLILLGFLTKDIRIRSLFLGIASFIGIIILFKRFEALKELSTGFGIFKEAPILETQPTSFKDLWAAFSLSFFLTPLFFIRFKKPRVEDFLTLGLIIPSVYMLKTWTRFLFIGSMAIAIMSGIGIVELYEAIKPRLNGKKALATGIITLVILPGVIAGLSFKEVCSLHPEMNEAWERALKWLKNNSNENDVILAWWDWGHFITYYARRSPIAQGGPSVGVALYLLGKLNENWAINLGVDYVIVSYYDFLKFGAILSTANLSKRYNIRGYGLVVLPLRASTGALIFENRGYRAIVRHDKSWNAVIIYNGQMIYPRKLYVEHKEGVQEIKPPESNSNTYLYVNLNYGYAIFMNGNAFNTTLVRLFITPEKPYKLVYSDGGLIKIFKLEHPNVKVERRESNVILNFENGTSLGLYFFLDNGTMVLSKWYNVKGKNEFIVPKVNASVARYVLKRGKKVVDRGVFRLSYN” as the sequence, how does the protein production read?
**A.** Its protein production is “failed”.

**Q.** With “MKRSFSMMTDKRKLHRKKMKRKKRRRRLMFGCLLLFLVLAASGLGYASFLMHKMKTAMNEAYEEIGAKKNTGDHLDPKKDSFTVLFIGIDDSKTRNFKSDTRSDALILAAFNADTQLVKMVSIPRDSYVYIPCEDKYDKITHAHAYGGTKCTIESIERLFDIPIDYYVKMNFYAFIDVVDALGGIEVEVPYNIREKDAEDNRNAIVLKKGYQHLNGEEALALARTRKKDNDIERGKRQQQILQAILKKASHAGSISKYDDVIEAIGSNMKTNFTFDDIKALIYYVSTGNPLQTESLVLQGTDDNEGVYYYRLDEESVQQISDALRSQLHASAGTQLEKERN” as the sequence, how does the protein production read?
**A.** The protein production was “failed”.
